Earlier results in publication PMC2650391.

Biological target: Histone H3K4me3 peptide (Homo sapiens) (UniProt P68431)

Chain of ING2 PHD (Q9H160 209-264): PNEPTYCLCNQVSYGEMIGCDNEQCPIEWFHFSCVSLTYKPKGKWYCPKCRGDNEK

Kd: 1500 nM
Substance: ING2 PHD (from UniProt Q9H160)
